First the molecules themselves.
B1: rabbit IgG Fc (domain or fragment)
chain: PSTCSKPTCPPPELLGGPSVFIFPPKPKDTLMISRTPEVTCVVVDVSQDDPEVQFTWYINNEQVRTARPPLREQQFNSTIRVVSTLPITHQDWLRGKEFKCKVHNKALPAPIEKTISKARGQPLEPKVYTMGPPREELSSRSVSLTCMINGFYPSDISVEWEKNGKAEDNYKTTPAVLDSDGSYFLYNKLSVPTSEWQRGDVFTCSVMHEALHNHYTQKSISRSPGK
modifications: biotin
B2: rat serum albumin (natural protein)
chain: EAHKSEIAHRFKDLGEQHFKGLVLIAFSQYLQKCPYEEHIKLVQEVTDFAKTCVADENAENCDKSIHTLFGDKLCAIPKLRDNYGELADCCAKQEPERNECFLQHKDDNPNLPPFQRPEAEAMCTSFQENPTSFLGHYLHEVARRHPYFYAPELLYYAEKYNEVLTQCCTESDKAACLTPKLDAVKEKALVAAVRQRMKCSSMQRFGERAFKAWAVARMSQRFPNAEFAEITKLATDVTKINKECCHGDLLECADDRAELAKYMCENQATISSKLQACCDKPVLQKSQCLAEIEHDNIPADLPSIAADFVEDKEVCKNYAEAKDVFLGTFLYEYSRRHPDYSVSLLLRLAKKYEATLEKCCAEGDPPACYGTVLAEFQPLVEEPKNLVKTNCELYEKLGEYGFQNAVLVRYTQKAPQVSTPTLVEAARNLGRVGTKCCTLPEAQRLPCVEDYLSAILNRLCVLHEKTPVSEKVTKCCSGSLVERRPCFSALTVDETYVPKEFKAETFTFHSDICTLPDKEKQIKKQTALAELVKHKPKATEDQLKTVMGDFAQFVDKCCKAADKDNCFATEGPNLVARSKEALA
modifications: biotin
B3: mouse IgG Fc (domain or fragment)
chain: VPRDCGCKPCICTVPEVSSVFIFPPKPKDVLTITLTPKVTCVVVDISKDDPEVQFSWFVDDVEVHTAQTQPREEQFNSTFRSVSELPIMHQDWLNGKEFKCRVNSAAFPAPIEKTISKTKGRPKAPQVYTIPPPKEQMAKDKVSLTCMITDFFPEDITVEWQWNGQPAENYKNTQPIMNTNGSYFVYSKLNVQKSNWEAGNTFTCSVLHEGLHNHHTEKSLSHSPGK
modifications: biotin

Assay in all cases: SPR
(In general: Surface plasmon resonance follows binding to a sensor surface in real time, without labels.)

Assay [1] concerns the target B3.
In assay [2] the target is B1.
The target of assay [3] is Ig-CON-5 (synthetic).
The target of assay [4] is protein A (UniProt P38507 37-477).
Assay [5] concerns the target B2.
Assay [6] has as its target mouse serum albumin (mouse, UniProt P07724 25-608, biotin).
For assay [7], the target named is human serum albumin (human, UniProt P02768 25-609, biotin).
Assay [8] deals with T1, rabbit serum albumin (rabbit, UniProt P49065 25-608, biotin).
T1 chain: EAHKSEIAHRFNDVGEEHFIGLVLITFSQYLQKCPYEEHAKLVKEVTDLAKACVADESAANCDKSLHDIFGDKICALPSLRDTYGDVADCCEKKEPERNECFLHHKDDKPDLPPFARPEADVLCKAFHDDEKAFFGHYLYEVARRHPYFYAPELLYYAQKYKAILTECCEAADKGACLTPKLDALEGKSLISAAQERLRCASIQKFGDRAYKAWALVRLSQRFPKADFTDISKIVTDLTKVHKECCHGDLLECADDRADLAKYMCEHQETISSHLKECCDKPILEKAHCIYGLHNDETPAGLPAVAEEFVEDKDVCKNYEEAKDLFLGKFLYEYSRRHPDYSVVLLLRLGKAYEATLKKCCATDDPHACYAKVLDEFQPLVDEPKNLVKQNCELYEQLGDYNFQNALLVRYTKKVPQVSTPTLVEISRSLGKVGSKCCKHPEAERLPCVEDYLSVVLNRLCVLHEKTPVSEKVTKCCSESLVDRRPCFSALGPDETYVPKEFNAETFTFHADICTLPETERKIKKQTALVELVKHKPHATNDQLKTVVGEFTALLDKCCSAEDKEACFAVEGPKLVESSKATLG

The target in assay [9] is Hs-CHR-3 (synthetic).

A word on the Kd: it is the concentration at which binding is half-saturated.

Sequence of mouse serum albumin (P07724 25-608): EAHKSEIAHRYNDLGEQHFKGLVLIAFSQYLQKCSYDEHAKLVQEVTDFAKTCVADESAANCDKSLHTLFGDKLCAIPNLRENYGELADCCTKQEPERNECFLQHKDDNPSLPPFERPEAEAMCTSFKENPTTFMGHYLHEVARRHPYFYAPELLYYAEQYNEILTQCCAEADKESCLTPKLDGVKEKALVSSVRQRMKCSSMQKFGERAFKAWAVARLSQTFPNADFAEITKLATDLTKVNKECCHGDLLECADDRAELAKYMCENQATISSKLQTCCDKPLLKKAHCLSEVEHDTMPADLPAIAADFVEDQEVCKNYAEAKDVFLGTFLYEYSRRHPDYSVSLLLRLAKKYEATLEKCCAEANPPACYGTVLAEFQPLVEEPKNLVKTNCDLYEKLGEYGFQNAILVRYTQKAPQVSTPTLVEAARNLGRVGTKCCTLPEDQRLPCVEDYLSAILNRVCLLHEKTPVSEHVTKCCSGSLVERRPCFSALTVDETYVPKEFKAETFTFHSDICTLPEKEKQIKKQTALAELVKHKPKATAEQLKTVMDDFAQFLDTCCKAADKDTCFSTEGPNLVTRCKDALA

Regarding GCQAHYWYRVWFCKQDSDCLAGCVCGPNGFCG [Ig-EET-1 (synthetic)], the Kd in assay [1] was > 20 µM; in [2] it was > 20000 nM.

On to B1, for which the Kd in assay [3] was > 30 nM; in [4] it was 0.167 nM.

Turning to RLIEDICLPRWGCLWEDD [SA21], the Kd in assay [5] is 190 nM; in assay [6] it was 160 nM; in [7] it was 650 nM; in assay [8] it was 100 nM.

B2: the Kd in [9] worked out at 2000 nM.

VGECVRGRCSQISCCSQFGYCGKGPKYCG [Ig-AMP-3 (synthetic)]: the Kd in assay [2] was ~1850 nM.

Consider B3, for which the Kd in assay [3] is ~1200 nM; in [4] it was 1.5 nM.

Take VGECVRGRCSKISCCSQFGYCGKGPKYCG [Ig-AMP-1 (synthetic)]: the Kd in [1] was > 20 µM; in assay [2] it was ~1410 nM.

The values above are taken from PMC10977726 (2024).
